Target: T1, recombinant human granulocyte-macrophage colony stimulating factor (hGM-CSF) (human, UniProt P04141 18-144)
T1 construct: also called recombinant GM-CSF; recombinant hGM-CSF
Assay: BIAcore, antibody immobilised on sensor chip, recombinant hGM-CSF as analyte
Protocol: Affinity analysis was conducted on the anti-hGM-CSF antibody applying BIAcore® system (FIG. 4). In the method, the antibody (purified antibody) was immobilized to a sensor chip, and then an antigen (recombinant) was added to the surface of the immobilized antibody, so that the interaction between antibody and an antigen was measured. A purified antibody was applied to the antibody, and a recombinant hGM-CSF was applied to the antigen. A mouse anti-GM-CSF monoclonal antibody (commercially available) (R&D) was applied to a positive control, and a purified anti-human cytomegalovirus monoclonal antibody was applied to a negative control. After the analysis, it turned out that antigen-antibody interaction was not detected in the negative control. In the positive control, dissociation constant of 6.1×10^-9 M is shown as the affinity. The affinity of the anti-GM-CSF antibody obtained was 2.1×10^-10 M (FIG. 5).

T1 sequence (P04141 18-144 limits assumed): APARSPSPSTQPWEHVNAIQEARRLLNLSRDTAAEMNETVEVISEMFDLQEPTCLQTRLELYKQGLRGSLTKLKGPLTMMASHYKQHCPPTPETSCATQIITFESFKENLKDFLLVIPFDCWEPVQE

Kd: 0.21 nM
B1: anti-hGM-CSF human monoclonal antibody J158 4C (antibody, human IgG1, kappa, V domains shown)
VH: LVQLVQSEAEVKKPGASVRISCRTSGYIFPTFALHWVRQAPGQSLEWVGSINTASGKTKFSTKFQDRLTLSSNTSATTVYMDLSGLTLDDTALYYCARDRFQNIMATILDVWGQGTLVTVSS
VL: DIVLTQSPGTLSLSPGERVTVSCRASHRVSSNYLAWYQQRPGQSPRLLIFGASNRATGVPDRFSGSGSGTDFALTISRLEPDDFAVYYCQQYASSPVTFGGGTKLEIKR
notes: also called anti-hGM-CSF antibody; anti-GM-CSF antibody

From patent publication US7935795 (EVEC, dated 2011)
